Test results as given in the supplement of paper PMC10567573.
± gives the standard deviation.

Assay: protein stability index of a GFP-peptide fusion (GPS, HEK-293T) (PSI 1-6); higher = more stable
[1] = treatment: DMSO, c terminus: a fixed tail appended
[2] = treatment: MLN4924 1 uM, 8 h, c terminus: a fixed tail appended
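Note: 24-mer peptide tiles fused after GFP, lentivirally expressed, FACS-sorted into six equal bins by GFP/DsRed ratio, decoded by Illumina sequencing, PSI is the read-weighted mean bin number.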

LIPVPMATQIQQLLQDKQFELALQ [VPS39]
protein stability index [1]: 2.31 ± 0.12
protein stability index [2]: 2.69 ± 0.29

LKEGVRLDRVRGGRQKYKRRPEVD [ESRRA]
protein stability index [1]: 4.19 ± 0.29
protein stability index [2]: 4.43 ± 0.19

LKKDKKKEEKEDEISLEDLIERER [ZC3H15]
protein stability index [1]: 5.47 ± 0.41
protein stability index [2]: 5.51 ± 0.13

LKLARKAYHDPMLKLSIMSEEELT [NET1]
protein stability index [1]: 3.06 ± 0.2
protein stability index [2]: 3.14 ± 0.21

LKLYEQWKNFDERKEMATILSKMP [CCNC]
protein stability index [1]: 2.61 ± 0.59
protein stability index [2]: 2.62 ± 0.41

LKPEKSYSFVLTNRGNSAGGLQHR [PTPRD]
protein stability index [1]: 3.08 ± 0.53
protein stability index [2]: 3.27 ± 0.23

LLEATGGAAGRSHHLDEDEERERI [KCTD10]
protein stability index [1]: 5.25 ± 0.25
protein stability index [2]: 5.41 ± 0.35

LLGFLRIRVRGQRASRLQAPVLVA [LPCAT4]
protein stability index [1]: 2.37 ± 0.52
protein stability index [2]: 2.12 ± 0.29

LLLILVSYVHILSAILQFPSTLGR [OR10K2]
protein stability index [1]: 2.98 ± 0.16
protein stability index [2]: 3.33 ± 0.35

LLLPGIYTVSATAPGYDPETVTVT [CPN1]
protein stability index [1]: 2.16 ± 0.22
protein stability index [2]: 2.17 ± 0.31

LPLPPPPPEPLSQVSMWDQRWQDH [APBB1IP]
protein stability index [1]: 3.19 ± 0.78
protein stability index [2]: 3.54 ± 0.57

LQDGNLRAPHKESTLPRSGSSGGQ [CHCHD6]
protein stability index [1]: 5.03 ± 0.12
protein stability index [2]: 4.95 ± 0.31

LQMEVCRLKKEEEDRIVTQNRVFA [CEP70]
protein stability index [1]: 3.98 ± 0.31
protein stability index [2]: 4.01 ± 0.055

LRLADEFGVAVVITNQVVAQVDGA [RAD51]
protein stability index [1]: 2.31 ± 0.52
protein stability index [2]: 2.1 ± 0.39

LRLSCMERKKVQIRSMDPSALASD [DCAF4]
protein stability index [1]: 2.99 ± 0.31
protein stability index [2]: 3.48 ± 0.3

LRPTLLLTSLHHFMHSRNLYILGN [PNLIPRP1]
protein stability index [1]: 3.08 ± 0.31
protein stability index [2]: 3.13 ± 0.81

LRQEMVNLRATDVRLMRQLLVINE [LURAP1L]
protein stability index [1]: 2.35 ± 0.081
protein stability index [2]: 2.48 ± 0.34

LRQLGCKDGKNWNSNQATDIMETS [SPOPL]
protein stability index [1]: 4.25 ± 0.24
protein stability index [2]: 4.28 ± 0.1

LRTSNGQPVKTAGEITQHNVTELL [DNAAF3]
protein stability index [1]: 4.14 ± 0.23
protein stability index [2]: 4.33 ± 0.17

LRVISDEGGWWKAISLSTGRESYI [SLA]
protein stability index [2]: 1.88 ± 0.22

LSAALASSQKQHSFTSSDKTIKSF [C8orf76]
protein stability index [1]: 3.77 ± 0.35
protein stability index [2]: 3.74 ± 0.2

LSAVPEEGDATRDPGPEPEEEPGV [PSD2]
protein stability index [1]: 5.77 ± 0.25
protein stability index [2]: 5.48 ± 0.49

LSEEERSEKAMLRSRIEEQSQLIC [CCDC89]
protein stability index [1]: 4.53 ± 0.3
protein stability index [2]: 4.62 ± 0.11

LSKSRTDYQPTQAGRLMRPSVKYL [RNF180]
protein stability index [1]: 3.19 ± 0.25
protein stability index [2]: 3.11 ± 0.49

LSLESEGAGEGAAASPELSALEEA [TPPP]
protein stability index [1]: 5.52 ± 0.17
protein stability index [2]: 5.58 ± 0.17

LSLTGVSLAGALGVKFVGLFIILQ [POMT2]
protein stability index [1]: 3.05 ± 1.1
protein stability index [2]: 2.39 ± 1.1

LSRDTVQESYENVDSLESHIPSQE [ZNF263]
protein stability index [1]: 5.26 ± 0.13
protein stability index [2]: 5.41 ± 0.13

LSRENIQSSLLETLYRNRSNLETI [PPEF2]
protein stability index [1]: 2.83 ± 0.39
protein stability index [2]: 2.64 ± 0.33

LSVEADINGLRRVLDELTLARADL [KRT17]
protein stability index [1]: 2.66 ± 0.26
protein stability index [2]: 3.04 ± 0.43

LSWFILHARYRVIHFIAVAVCLLG [SLC35F2]
protein stability index [1]: 2.49 ± 0.12
protein stability index [2]: 2.83 ± 0.91

LTEAEGWHFFCFQGEATRKLAGK [SAT2]
protein stability index (treatment: DMSO, c terminus: native): 2.69 ± 0.29
protein stability index (treatment: MLN4924 1 uM, 8 h, c terminus: native): 3.02 ± 0.49

LTEIYRIVSQKQMSDRRENDMSPS [RAB11A]
protein stability index [1]: 3.54 ± 0.2
protein stability index [2]: 3.81 ± 0.12

LTHFSRRYCQCNPDDSTSEDGIHT [PSD2]
protein stability index [1]: 3.6 ± 0.27
protein stability index [2]: 3.77 ± 0.3

LTLSGIKEDNSLLNQGFLQAKPEK [MYBL2]
protein stability index [1]: 4.53 ± 0.39
protein stability index [2]: 4.61 ± 0.099

LTYACENGHTDVADVLLQAGADLE [ANKRD17]
protein stability index [1]: 4.3 ± 0.16
protein stability index [2]: 4.68 ± 0.35

LVADLLYWKDTRTSGVVFTGLMVS [RTN2]
protein stability index [1]: 3.17 ± 0.46
protein stability index [2]: 3.03 ± 0.4

LVELPASFRELLTFFCTNATIHGA [SCNN1D]
protein stability index [1]: 2.79 ± 0.38
protein stability index [2]: 2.63 ± 0.49

LVETAIQSLDEPGGATFLLTAKQL [TRIM63]
protein stability index [1]: 2.75 ± 0.14
protein stability index [2]: 2.66 ± 0.45

LVMASLYHIYVALEEEIERNKESP [HMOX1]
protein stability index [1]: 2.27 ± 0.19
protein stability index [2]: 2.22 ± 0.44

LVPALRLPGRKLVSSAVSPSIIPQ [INTS4]
protein stability index [1]: 2.48 ± 0.31
protein stability index [2]: 2.46 ± 0.26

LVSIRNNRNLQKFSLFGDISVLQQ [FBXO33]
protein stability index [1]: 2.17 ± 0.14
protein stability index [2]: 2.09 ± 0.29

LVSPSNNSKEDAFSGTDWMLEKMD [ATF4]
protein stability index [1]: 4.66 ± 0.26
protein stability index [2]: 4.64 ± 0.23

LVWLVRELVKSGVLGADGVCMTFM [INTS3]
protein stability index [1]: 2.17 ± 0.54
protein stability index [2]: 2.22 ± 0.84

MAAEIQPKPLTRKPILLQRMEGSQ [WDFY2]
protein stability index [1]: 4.05 ± 0.27
protein stability index [2]: 3.8 ± 0.38

MAETVADTRRLITKPQNLNDAYGP [SNX3]
protein stability index [1]: 3.95 ± 0.25
protein stability index [2]: 4.17 ± 0.15

MANQEAAIQAFLDKCSAPKIWRTP [IQUB]
protein stability index [1]: 3.11 ± 0.14
protein stability index [2]: 3.16 ± 0.34

MATITCTRFTEEYQLFEELGKGAF [CAMK2A]
protein stability index [1]: 2.35 ± 0.23
protein stability index [2]: 2.44 ± 0.4

MAVAQQLRAESDFEQLPDDVAISA [NCF4]
protein stability index [1]: 4.89 ± 0.27
protein stability index [2]: 4.88 ± 0.19

MCSTLEHNCAHFCINIPGSYVCRC [MATN2]
protein stability index [1]: 3.18 ± 0.33
protein stability index [2]: 3.19 ± 0.44

MCYRVRWEEAAPGRAVEHAMFLGD [MYORG]
protein stability index [1]: 2.27 ± 0.18
protein stability index [2]: 2.34 ± 0.47

MEGDGGTPWALALLRTFDAGEFTG [RIPK4]
protein stability index [1]: 2.11 ± 0.16

MELGGHWDMNSAPRLVSETAERKQ [MFSD9]
protein stability index [1]: 4.98 ± 0.11
protein stability index [2]: 4.98 ± 0.2

MELGPEPPHRRRLLFACSPPPASQ [CDC25A]
protein stability index [1]: 3.57 ± 0.2
protein stability index [2]: 3.47 ± 0.17

MELPSGPGPERLFDSHRLPGDCFL [AUP1]
protein stability index [1]: 3.36 ± 0.36
protein stability index [2]: 3.27 ± 0.35

MENLLQATKSHVDKVIMKLGKTNA [DYNC2LI1]
protein stability index [1]: 3.24 ± 0.28
protein stability index [2]: 3.34 ± 0.38

MEPGGARLRLQRTGGLGGERERQP [SOAT2]
protein stability index [1]: 4.58 ± 0.12
protein stability index [2]: 4.65 ± 0.21

MEREFNNLLALGTDRKLDDGDDKV [PPFIA4]
protein stability index [1]: 5.47 ± 0.32
protein stability index [2]: 5.34 ± 0.58

MGREKCHQYWPAERSARYQYFVVD [PTPRD]
protein stability index [1]: 2.3 ± 0.34
protein stability index [2]: 2.33 ± 0.14

MIAFFFIIIYLGPMVLMIIVMCVQ [CDS2]
protein stability index [1]: 3.3 ± 0.31
protein stability index [2]: 3.12 ± 0.93

MIIEHKIVIADVKLVADFQRYILY [ZNF277]
protein stability index [1]: 3.58 ± 0.73
protein stability index [2]: 2.74 ± 1.1

MKSYSFLREAVPGILRARRGEGIQ [SOAT2]
protein stability index [1]: 2.54 ± 0.2
protein stability index [2]: 2.77 ± 0.39

MLQEQLDAINEEIRMIQEEKESTE [PPFIA4]
protein stability index [1]: 4.75 ± 0.41
protein stability index [2]: 4.84 ± 0.11

MNQTCCPQYTIRCRPLQFQPSKSH [ATE1]
protein stability index [1]: 2.06 ± 0.27
protein stability index [2]: 2.1 ± 0.25

MPCTWVMACAYAPSGCAIACGGLD [GNB5]
protein stability index [1]: 2.77 ± 0.53
protein stability index [2]: 2.88 ± 0.4

MPEERASKYENYFSASERLSLKRE [HESX1]
protein stability index [1]: 4.41 ± 0.51
protein stability index [2]: 4.75 ± 0.31

MPSETLWEIAKAEVEKRGINGSEG [DYNC2LI1]
protein stability index [1]: 4.88 ± 0.15
protein stability index [2]: 5.1 ± 0.1

MPTGPPEDRLSLKFLPSSEEDNDD [DRICH1]
protein stability index [1]: 5.47 ± 0.2
protein stability index [2]: 5.59 ± 0.15

MSERLRPRKRRRNGNEEDNHLPPQ [FAM104A]
protein stability index [1]: 5.3 ± 0.14
protein stability index [2]: 5.39 ± 0.14

MSRSGDRTSTFDPSHSDNLLHGLN [KLHL14]
protein stability index [1]: 4.13 ± 0.24
protein stability index [2]: 4.09 ± 0.26

MSYFGEHFWGEKNHGFEVLYHSVK [FCHO1]
protein stability index [1]: 2.59 ± 0.24
protein stability index [2]: 2.11 ± 0.16

NAESSKTWLKGKFTELRLLLDEEE [TRIM14]
protein stability index [1]: 4.14 ± 0.34
protein stability index [2]: 4.41 ± 0.47

NAGISFSVKKQGETVADVRTLPNA [MLH1]
protein stability index [1]: 4.37 ± 0.46
protein stability index [2]: 4.11 ± 0.1

NCSDFLESKGCFANTTPSGKSVSS [SPATS1]
protein stability index [1]: 4.15 ± 0.2
protein stability index [2]: 4.35 ± 0.17

NDDSADYQHFLQDCVDGLFKEVKE [DLC1]
protein stability index [1]: 2.96 ± 0.5
protein stability index [2]: 3.54 ± 0.62

NGLTLLILGVIGLFTIPLLYRQHQ [RTN2]
protein stability index [1]: 3.39 ± 0.37
protein stability index [2]: 2.93 ± 0.71

NGVNVLDEPYEKVVDRIQSSGKNV [PDZK1]
protein stability index [1]: 5.03 ± 0.3

NHAPLREQGAIPRLVQLLVRAHQD [CTNNB1]
protein stability index [1]: 2.91 ± 0.23
protein stability index [2]: 2.91 ± 0.19

NIQIIEYEKKQTLGQNDTGFSCDG [BTBD1]
protein stability index [1]: 4.36 ± 0.4
protein stability index [2]: 4.034 ± 0.016

NKHLTTHQGIKPYKCSWCGKSFSQ [ZNF75A]
protein stability index [1]: 2.35 ± 0.45
protein stability index [2]: 2.06 ± 0.37

NKKNILLRLLREEEYVAPPRGPLP [TRAF3IP2]
protein stability index [1]: 2.44 ± 0.25
protein stability index [2]: 3.06 ± 0.54

NKRCKDKKKSILMKQLQQQQHSDK [ISL2]
protein stability index [1]: 4.45 ± 0.18
protein stability index [2]: 4.5 ± 0.12

NLANCERLIEVEDMMVMGRKPDPM [SMTNL2]
protein stability index [1]: 3.36 ± 0.25
protein stability index [2]: 3.48 ± 0.31

NLISLLALRVLAEQNIIPSATNVT [TENT5C]
protein stability index [1]: 2.94 ± 0.39
protein stability index [2]: 3.12 ± 0.36

NLKQLRKRGSIPTSLTALSLASAS [PPFIA4]
protein stability index [1]: 3 ± 0.15
protein stability index [2]: 3.09 ± 0.24

NLLQPNFEAAFGTTPSTSSSSSFD [SNAP91]
protein stability index [1]: 4.11 ± 0.093
protein stability index [2]: 4.08 ± 0.046

NLQELLELDSSSSLCVLVSTVGKL [CEP70]
protein stability index [1]: 2.29 ± 0.49
protein stability index [2]: 2.43 ± 0.47

NQLQYMQNVVVKTLWKHQFAWPFY [BRD3]
protein stability index [1]: 3.03 ± 0.46
protein stability index [2]: 2.64 ± 0.36

NSQVHRETEDVDYGETDFHKQDGK [TMEM40]
protein stability index [1]: 5.54 ± 0.12
protein stability index [2]: 5.52 ± 0.17

NSTQADEGKTKKGVLEAPDTQVNP [FBXO34]
protein stability index [1]: 5.49 ± 0.19
protein stability index [2]: 5.41 ± 0.18

NVEHYQELKKMVQQSDLGQYVTFL [ALG2]
protein stability index [1]: 2.27 ± 0.12
protein stability index [2]: 2.43 ± 0.27
